In article PMC9482650, “Quantitative fragmentomics allow affinity mapping of interactomes” (Nature Communications, 2022):

Legend:
Assay in all cases: holdup assay
Design in all cases: key: below the threshold = too weak to quantify, mostly under pKd 3.1 to 4
Conditions in all cases: plain residues with an end cap or a label only (N-terminal biotin on a linker: ttds)
FRMPD2_2, Q68DX3 = target: FRMPD2_2, Q68DX3
PDLIM1, O00151 = target: PDLIM1, O00151
DFNB31_3, Q9P202 = target: T1, DFNB31_3, Q9P202
T1 sequence (Q9P202 811-907, limits assumed, looked up): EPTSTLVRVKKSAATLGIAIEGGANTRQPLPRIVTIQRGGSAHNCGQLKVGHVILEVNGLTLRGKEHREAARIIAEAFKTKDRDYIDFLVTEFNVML

Inadl_10, Q8NI35 = target: Inadl_10, Q8NI35
GOPC, Q9HD26 = target: GOPC, Q9HD26
MPP2, Q14168 = target: T2, MPP2, Q14168
T2 sequence (Q14168 180-250, limits assumed, looked up): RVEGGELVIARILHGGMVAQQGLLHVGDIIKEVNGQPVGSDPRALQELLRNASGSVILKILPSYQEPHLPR

GRIP2_6, Q9C0E4 = target: GRIP2_6, Q9C0E4
GRIP2_5, Q9C0E4 = target: GRIP2_5, Q9C0E4
APBA1_1, Q02410 = target: T3, APBA1_1, Q02410
T3 sequence (Q02410 651-752, limits assumed, looked up): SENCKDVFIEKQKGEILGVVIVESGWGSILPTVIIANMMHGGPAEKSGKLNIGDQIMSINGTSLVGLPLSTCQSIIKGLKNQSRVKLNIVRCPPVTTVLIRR

LIN7A, O14910 = target: T4, LIN7A, O14910
T4 sequence (O14910 103-200, limits assumed, looked up): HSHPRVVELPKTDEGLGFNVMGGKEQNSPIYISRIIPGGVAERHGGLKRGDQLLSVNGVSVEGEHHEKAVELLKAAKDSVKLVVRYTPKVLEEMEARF

LIN7C, Q9NUP9 = target: T5, LIN7C, Q9NUP9
T5 sequence (Q9NUP9 88-185, limits assumed, looked up): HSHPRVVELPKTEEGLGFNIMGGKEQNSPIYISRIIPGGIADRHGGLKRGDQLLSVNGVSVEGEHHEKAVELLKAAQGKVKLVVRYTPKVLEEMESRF

Inadl_9, Q8NI35 = target: Inadl_9, Q8NI35
MAGI2_3, Q86UL8 = target: MAGI2_3, Q86UL8
MPP6, Q9NZW5 = target: T6, MPP6, Q9NZW5
T6 sequence (Q9NZW5 125-219, limits assumed, looked up): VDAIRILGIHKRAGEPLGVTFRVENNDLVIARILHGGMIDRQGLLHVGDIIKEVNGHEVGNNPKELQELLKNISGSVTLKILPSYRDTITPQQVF

DLG4_2, P78352 = target: DLG4_2, P78352
NHERF3_3, Q5T2W1 = target: T7, NHERF3_3, Q5T2W1
T7 sequence (Q5T2W1 238-333, limits assumed, looked up): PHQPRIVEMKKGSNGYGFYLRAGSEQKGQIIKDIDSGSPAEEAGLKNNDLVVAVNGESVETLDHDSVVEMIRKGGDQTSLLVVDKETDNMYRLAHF

PDZD2_2, O15018 = target: T8, PDZD2_2, O15018
T8 sequence (O15018 329-429, limits assumed, looked up): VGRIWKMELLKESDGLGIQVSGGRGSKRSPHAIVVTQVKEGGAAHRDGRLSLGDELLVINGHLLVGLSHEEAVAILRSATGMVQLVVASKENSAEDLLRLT

MAGI1_1, Q96QZ7 = target: MAGI1_1, Q96QZ7
FRMPD4, Q14CM0 = target: FRMPD4, Q14CM0
PARD3_3, Q8TEW0 = target: PARD3_3, Q8TEW0
GRIP1_2, Q9Y3R0 = target: T9, GRIP1_2, Q9Y3R0
T9 sequence (Q9Y3R0 145-248, limits assumed, looked up): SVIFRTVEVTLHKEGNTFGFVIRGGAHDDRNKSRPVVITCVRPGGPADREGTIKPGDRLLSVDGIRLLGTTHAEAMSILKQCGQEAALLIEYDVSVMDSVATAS

FRMPD2_1, Q68DX3 = target: FRMPD2_1, Q68DX3
CARD11, Q9BXL7 = target: T10, CARD11, Q9BXL7
T10 sequence (Q9BXL7 662-765, limits assumed, looked up): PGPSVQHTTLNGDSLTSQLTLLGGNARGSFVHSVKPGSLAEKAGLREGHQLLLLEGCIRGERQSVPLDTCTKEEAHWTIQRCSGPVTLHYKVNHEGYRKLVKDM

LNX1_2, Q8TBB1 = target: LNX1_2, Q8TBB1
FRMPD1, Q5SYB0 = target: T11, FRMPD1, Q5SYB0
T11 sequence (Q5SYB0 52-145, limits assumed, looked up): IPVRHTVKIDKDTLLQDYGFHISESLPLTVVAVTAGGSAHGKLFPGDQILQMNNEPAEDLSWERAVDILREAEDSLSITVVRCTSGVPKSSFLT

GRIP1_3, Q9Y3R0 = target: T12, GRIP1_3, Q9Y3R0
T12 sequence (Q9Y3R0 247-346, limits assumed, looked up): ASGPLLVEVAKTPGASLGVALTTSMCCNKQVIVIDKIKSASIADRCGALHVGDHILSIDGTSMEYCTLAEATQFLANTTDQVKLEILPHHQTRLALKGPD

FRMPD2_1, Q68DX3, sequence (Q68DX3 770-861): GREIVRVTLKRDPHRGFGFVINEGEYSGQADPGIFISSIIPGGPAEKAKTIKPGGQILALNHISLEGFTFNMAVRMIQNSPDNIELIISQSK
FRMPD2_2, Q68DX3, sequence (Q68DX3 944-1038): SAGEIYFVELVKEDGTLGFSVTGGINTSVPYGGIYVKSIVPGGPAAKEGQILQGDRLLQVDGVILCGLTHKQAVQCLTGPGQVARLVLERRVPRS
PARD3_3, Q8TEW0, sequence (Q8TEW0 582-685): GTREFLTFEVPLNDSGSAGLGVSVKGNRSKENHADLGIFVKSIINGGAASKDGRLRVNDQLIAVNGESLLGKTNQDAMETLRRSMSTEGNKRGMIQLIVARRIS
GRIP2_5, Q9C0E4, sequence (Q9C0E4 544-642): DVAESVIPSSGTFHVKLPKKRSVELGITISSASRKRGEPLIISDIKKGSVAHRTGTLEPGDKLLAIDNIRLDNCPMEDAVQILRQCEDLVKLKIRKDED
FRMPD4, Q14CM0, sequence (Q14CM0 67-160): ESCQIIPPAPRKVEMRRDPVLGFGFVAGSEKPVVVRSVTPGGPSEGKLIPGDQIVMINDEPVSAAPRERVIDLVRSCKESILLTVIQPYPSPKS
PDLIM1, O00151, sequence (O00151 1-87): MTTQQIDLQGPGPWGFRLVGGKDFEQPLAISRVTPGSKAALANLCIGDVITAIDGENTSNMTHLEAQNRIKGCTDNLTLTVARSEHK
Inadl_10, Q8NI35, sequence (Q8NI35 1673-1763): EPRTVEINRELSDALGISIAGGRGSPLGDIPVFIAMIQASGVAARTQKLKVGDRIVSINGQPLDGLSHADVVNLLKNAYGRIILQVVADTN
Inadl_9, Q8NI35, sequence (Q8NI35 1530-1615): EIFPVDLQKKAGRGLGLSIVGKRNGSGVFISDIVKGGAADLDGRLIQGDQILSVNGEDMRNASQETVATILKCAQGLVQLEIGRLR
LNX1_2, Q8TBB1, sequence (Q8TBB1 371-470): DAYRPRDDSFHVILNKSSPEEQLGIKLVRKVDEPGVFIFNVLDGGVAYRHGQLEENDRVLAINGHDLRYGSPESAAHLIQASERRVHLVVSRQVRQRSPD
MAGI2_3, Q86UL8, sequence (Q86UL8 600-682): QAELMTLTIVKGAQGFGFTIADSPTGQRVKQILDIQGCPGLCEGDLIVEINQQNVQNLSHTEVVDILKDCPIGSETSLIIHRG
MAGI1_1, Q96QZ7, sequence (Q96QZ7 1-106): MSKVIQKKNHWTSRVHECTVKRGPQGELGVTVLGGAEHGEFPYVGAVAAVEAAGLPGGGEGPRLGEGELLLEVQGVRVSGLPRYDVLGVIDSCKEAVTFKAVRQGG
DLG4_2, P78352, sequence (P78352 155-259): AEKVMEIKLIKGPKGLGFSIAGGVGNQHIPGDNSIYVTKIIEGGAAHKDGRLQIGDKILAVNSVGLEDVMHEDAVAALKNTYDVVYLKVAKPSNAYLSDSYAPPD
GRIP2_6, Q9C0E4, sequence (Q9C0E4 648-740): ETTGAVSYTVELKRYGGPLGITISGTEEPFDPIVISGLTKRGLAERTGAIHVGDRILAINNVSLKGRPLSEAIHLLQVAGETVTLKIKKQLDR

## STLTIFETAL [ABCC4, O15439]
FRMPD2_2, Q68DX3
  pKd: 3.77
PDLIM1, O00151
  pKd: 3.85
DFNB31_3, Q9P202
  pKd: below the threshold
Inadl_10, Q8NI35
  pKd: 3.52
GOPC, Q9HD26
  pKd: 4.52
MPP2, Q14168
  pKd: below the threshold
GRIP2_6, Q9C0E4
  pKd: below the threshold
GRIP2_5, Q9C0E4
  pKd: below the threshold
APBA1_1, Q02410
  pKd: below the threshold
LIN7A, O14910
  pKd: 3.66
LIN7C, Q9NUP9
  pKd: 4.68
Inadl_9, Q8NI35
  pKd: below the threshold
MAGI2_3, Q86UL8
  pKd: below the threshold
MPP6, Q9NZW5
  pKd: below the threshold
DLG4_2, P78352
  pKd: 4.23
NHERF3_3, Q5T2W1
  pKd: 3.61
PDZD2_2, O15018
  pKd: 3.65
MAGI1_1, Q96QZ7
  pKd: below the threshold
FRMPD4, Q14CM0
  pKd: 4.64
PARD3_3, Q8TEW0
  pKd: 4.31
GRIP1_2, Q9Y3R0
  pKd: below the threshold
FRMPD2_1, Q68DX3
  pKd: 3.84
CARD11, Q9BXL7
  pKd: below the threshold
LNX1_2, Q8TBB1
  pKd: below the threshold
FRMPD1, Q5SYB0
  pKd: below the threshold
GRIP1_3, Q9Y3R0
  pKd: below the threshold
